Data published in patent US7641891B2, “Chimeric, human and humanized anti-CSAp monoclonal antibodies” (Immunomedics, Inc., priority 1998, dated 2010).

Assays:
[1] = tested on: CSAp antigen; experiment: Competitive Binding Assay against HRP-conjugated Mu-9; design: species or system human; conditions: for Competition with the binding of HRP-conjugated Mu-9 to the CSAp antigen: antigen-coated wells, competing antibody 0-50 μg/ml; for Binding affinity to CSAp antigen compared with murine Mu-9: see Example 8-9
Method: Murine Mu-9 IgG was conjugated with horseradish peroxidase (HRP) (Sigma). The peroxidase-conjugated Mu-9 was first tested for binding on microwells coated with CSAp antigen, and the optimum concentration was determined to be 0.2 μg/ml. Peroxidase-conjugated Mu-9 was mixed with various concentrations of either murine or chimeric Mu-9 (0-50 μg/ml) before addition to the antigen-coated wells. Binding of the peroxidase-conjugated Mu-9 to the antigen in the presence of the competing antibodies was measured at 490 nm after the addition of the substrate as described earlier.
The binding affinity of hMu-9 was compared in a competitive binding assay as described in Example 6.

[2] = tested on: CSAp antigen; experiment: Mu-9 Direct Binding Assay (ELISA); design: species or system human; conditions: wells coated with GW-39 tumor extract fraction, murine Mu-9 as standard
Method: Chimeric antibody supernatant (100 μl) or purified antibody (0-1 μg/ml) was added and incubated at room temperature for 1 hour. Unbound proteins were removed by washing six times with wash buffer (PBS containing 0.05% Tween 20). Purified murine Mu-9 protein was used as the standard. The bound antibodies were allowed to react with peroxidase-conjugated goat anti-human IgG, Fc fragment-specific (Jackson ImmunoResearch, West Grove Pa.) and peroxidase conjugated goat anti-mouse IgG, Fc fragment-specific antibodies (Jackson ImmunoResearch). […] The color was developed in the dark for 1 hour, the reaction was stopped with 50 μl of 4NH2SO4, and the absorbance at 490 nm was measured in a Dynatech plate reader (Dynatech Labs, Sussex, UK).
The methods for expression and binding activity assays for hMu9 were same as described for cMu9. Approximately 10 and 30 μg of linearized hMu9VkpKh and hMu9VHpG1g were co-transfected into SP2/0 cells by electroporation. Transfected cells were grown in 96-well cell culture plates in complete medium for 2 days and then selected by the addition of hygromycin at a final concentration of 500 U/ml. Typically, the colonies began to emerge 2-3 weeks after electroporation and were assayed for antibody secretion by enzyme-linked immunosorbent assay (ELISA). […] The purified antibodies (5 μg) were analyzed by SDS-PAGE on a 4-20% gradient gel under reducing conditions.

B1: murine Mu-9: murine monoclonal antibody of the IgG1 subtype, directed against the colon-specific antigen-p mucin (CSAp) (antibody, listed as Murine sp., V domains shown)
VH: VQLQESGPELVKPGASVKMSCRASGYTFTEYVITWVKQRTGQGLEWIGEIYPGSGSTSYNEKFKGKATLTADKSSNTAYMHLSSLTSEDSAVYFCTREDLGGQGTLVTVSS
VL: AVLMTQTPLSLPVSLGDQASISCRSSQSIVHSNGNTYLEWYLQKPGQSPKLLIYKVSNRFSGVPDRFSGTGSGTDFTVRISRVEAEDLGLYYCFQGSRVPYTFGGGTKLEIK
modifications: murine IgG1 constant regions
- Competition with the binding of HRP-conjugated Mu-9 to the CSAp antigen [1]: competed equally well

B2: cMu-9-2: chimeric Mu-9 constructed from the VH and Vk2 and expressed in Sp2/0 cells (antibody, V domains shown)
VH: QVQLQESGPELVKPGASVKMSCRASGYTFTEYVITWVKQRTGQGLEWIGEIYPGSGSTSYNEKFKGKATLTADKSSNTAYMHLSSLTSEDSAVYFCTREDLGGQGTLVTVSS
VL: DILQTQTPLSLPVSLGDQASISCRSSQSIVHSNGNTYLEWYLQKPGQSPKLLIYKVSNRFSGVPDRFSGTGSGTDFTVRISRVEAEDLGLYYCFQGSRVPYTFGGGTKLEIKR
modifications: human constant regions
notes: chimeric Mu-9 constructed from the VH and Vk2 and expressed in Sp2/0 cells
- Competition with the binding of HRP-conjugated Mu-9 to the CSAp antigen [1]: competed equally well
- Binding affinity to CSAp antigen compared with murine Mu-9 [1]: comparable binding affinity to CSAp antigen as that of murine Mu-9
- Binding affinity to CSAp antigen compared with murine Mu-9 ([1]; listed as cMu-9): comparable to that of its murine counterpart
- Direct binding to CSAp antigen [2]: virtually superimposable on that of the murine Mu-9
- Direct binding to CSAp antigen ([2]; listed as cMu-9): bound avidly to the CSAp antigen
